Biological target: Src-YN (mouse)
Test: split reporter (BiFC, NanoBiT); BiFC with YFP fragments YC (155-238) and YN (1-154) in co-transfected CHO-K1 cells on fibronectin-coated coverslips; whole cells, fixed (also live cells and TIRFM), wide-field fluorescence; cells scored as background, ER + punctate or only punctate

% of cells with BiFC signal (ER + punctate): 86%
% of cells with BiFC signal (only punctate): 14%
Substance: YC-PTP1BWT (from UniProt P18031 1-435) (enzyme)
